The source of these data is the supplement of paper PMC9112550, “Optimization of the antimicrobial peptide Bac7 by deep mutational scanning” (BMC Biology, 2022).

For the data set, the system named is Escherichia coli TOP10. Put plainly: shrunken log2 fold change of peptide-encoding DNA abundance (4.5 h post-induction vs induction); higher = less antimicrobial activity (less host growth inhibition). The conditions noted are these: time post-induction: 4.5 h; library: site-saturation at positions 5, 18, 19, 20.
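Note: peptides expressed intracellularly from a pBAD plasmid library in pooled LB shake-flask culture, induced with 0.3% L-arabinose, DNA abundance read by NGS, three biological replicates, DESeq2 with apeglm shrinkage.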

Take RRIRKRPPRLPRPRPRPVDHPRP: the “shrunken log2 fold change” value turned out to be 0.147.
The value for RRIRSRPPRLPRPRPRPVKWPRP was -0.03.
With RRIRGRPPRLPRPRPRPPNHPRP, the “shrunken log2 fold change” value worked out at 0.942.
As for RRIRLRPPRLPRPRPRPVHMPRP, the figure is -0.0691; as for RRIRMRPPRLPRPRPRPESVPRP, 0.958.
As for RRIRGRPPRLPRPRPRPTWAPRP, the figure is 0.987.
As for RRIRFRPPRLPRPRPRPGTTPRP, the figure is -0.032; as for RRIRLRPPRLPRPRPRPCKNPRP, -0.0458; as for RRIRHRPPRLPRPRPRPRHTPRP, -0.0794.
Turning to RRIRMRPPRLPRPRPRPYLEPRP, the “shrunken log2 fold change” value was -0.0515.
The value for RRIRPRPPRLPRPRPRPEPDPRP was 0.537.
As for RRIRHRPPRLPRPRPRPKYEPRP, the figure is -0.255; as for RRIRGRPPRLPRPRPRPVKRPRP, 0.248; as for RRIRKRPPRLPRPRPRPGDWPRP, 0.485.
As to RRIRCRPPRLPRPRPRPELPPRP, the “shrunken log2 fold change” value was 0.762.
As for RRIRKRPPRLPRPRPRPPSWPRP, the figure is 0.401.
Turning to RRIRFRPPRLPRPRPRPGVGPRP, the “shrunken log2 fold change” value amounted to 0.358.
In the case of RRIRNRPPRLPRPRPRPRCVPRP, the “shrunken log2 fold change” value is -0.0119.
Take RRIRNRPPRLPRPRPRPIAWPRP: the “shrunken log2 fold change” value was 0.228.
Consider RRIRCRPPRLPRPRPRPPFWPRP, for which the “shrunken log2 fold change” value amounted to 0.649.
Consider RRIRGRPPRLPRPRPRPWVSPRP, for which the “shrunken log2 fold change” value is -0.0322.
As for RRIRPRPPRLPRPRPRPPKAPRP, the figure is -0.0122; as for RRIRIRPPRLPRPRPRPLTRPRP, -0.265.
The value for RRIRWRPPRLPRPRPRPMSPPRP was 0.000834; that for RRIRERPPRLPRPRPRPIFCPRP was 0.0456; that for RRIRVRPPRLPRPRPRPIYCPRP was -0.113.
As for RRIRIRPPRLPRPRPRPCRVPRP, the “shrunken log2 fold change” value was -1.39.
As for RRIRARPPRLPRPRPRPLNQPRP, the “shrunken log2 fold change” value is -0.0348.
The value for RRIRDRPPRLPRPRPRPAGGPRP was 1.11; that for RRIRCRPPRLPRPRPRPTGKPRP was 0.355; that for RRIRQRPPRLPRPRPRPRHGPRP was -0.203.
For RRIRARPPRLPRPRPRPLIMPRP, the “shrunken log2 fold change” value is -0.144.
As for RRIRVRPPRLPRPRPRPKIHPRP, the figure is -0.205.
RRIRDRPPRLPRPRPRPDNCPRP: the “shrunken log2 fold change” value is -0.000924.
Consider RRIRYRPPRLPRPRPRPDGAPRP, for which the “shrunken log2 fold change” value was -0.0116.
Consider RRIRVRPPRLPRPRPRPFTSPRP, for which the “shrunken log2 fold change” value was -0.0104.
Regarding RRIRVRPPRLPRPRPRPLAPPRP, the “shrunken log2 fold change” value turned out to be 0.169.
As for RRIRRRPPRLPRPRPRPGTSPRP, the figure is 0.0636.
The value for RRIRPRPPRLPRPRPRPHCCPRP was -0.181; that for RRIRGRPPRLPRPRPRPWPTPRP was 0.233; that for RRIRPRPPRLPRPRPRPGMEPRP was 0.367.
Turning to RRIRERPPRLPRPRPRPGSTPRP, the “shrunken log2 fold change” value was -0.401.
As for RRIRARPPRLPRPRPRPYYRPRP, the figure is -0.183.
As for RRIRDRPPRLPRPRPRPSMDPRP, the figure is -0.0183; as for RRIRLRPPRLPRPRPRPLDLPRP, -0.481.
With RRIRNRPPRLPRPRPRPESRPRP, the “shrunken log2 fold change” value came to 0.114.
In the case of RRIRTRPPRLPRPRPRPSFMPRP, the “shrunken log2 fold change” value is -0.412.
The value for RRIRSRPPRLPRPRPRPVGAPRP was 0.538; that for RRIRARPPRLPRPRPRPGNNPRP was -0.0708; that for RRIRMRPPRLPRPRPRPQDDPRP was -0.00208.
As for RRIRMRPPRLPRPRPRPMVDPRP, the figure is 0.0184; as for RRIRMRPPRLPRPRPRPLISPRP, 0.171; as for RRIRQRPPRLPRPRPRPHHFPRP, -0.0176.
As for RRIRGRPPRLPRPRPRPCRGPRP, the figure is -0.0404; as for RRIRCRPPRLPRPRPRPWTCPRP, -0.323; as for RRIRRRPPRLPRPRPRPCKHPRP, 0.00883.
Regarding RRIRHRPPRLPRPRPRPQACPRP, the “shrunken log2 fold change” value was -0.208.
On to RRIRLRPPRLPRPRPRPGYLPRP, for which the “shrunken log2 fold change” value was -0.282.
The value for RRIRNRPPRLPRPRPRPTCTPRP was -0.0629; that for RRIRFRPPRLPRPRPRPECAPRP was 0.724; that for RRIRNRPPRLPRPRPRPLTMPRP was -0.429.
The value for RRIRMRPPRLPRPRPRPGGTPRP was 0.722.
The value for RRIRNRPPRLPRPRPRPYNVPRP was -0.526; that for RRIRNRPPRLPRPRPRPPGYPRP was 0.39.
RRIRCRPPRLPRPRPRPKTFPRP: the “shrunken log2 fold change” value was -0.138.
As for RRIRERPPRLPRPRPRPHKCPRP, the figure is 0.0924; as for RRIRERPPRLPRPRPRPKCSPRP, -0.0163.
Regarding RRIRERPPRLPRPRPRPQLNPRP, the “shrunken log2 fold change” value is -0.423.
As for RRIRQRPPRLPRPRPRPHYNPRP, the figure is -1.22.
The value for RRIRMRPPRLPRPRPRPETVPRP was 2.2; that for RRIRERPPRLPRPRPRPRWVPRP was -0.0454; that for RRIRDRPPRLPRPRPRPKDIPRP was -0.0599.
For the sequence RRIRERPPRLPRPRPRPWALPRP, the “shrunken log2 fold change” value is -0.144.
With RRIRGRPPRLPRPRPRPRIPPRP, the “shrunken log2 fold change” value amounted to 0.424.
Turning to RRIRMRPPRLPRPRPRPDINPRP, the “shrunken log2 fold change” value came out at 3.07.
The value for RRIRYRPPRLPRPRPRPKPHPRP was -0.1; that for RRIRQRPPRLPRPRPRPHCWPRP was -0.0628.
In the case of RRIRKRPPRLPRPRPRPPFAPRP, the “shrunken log2 fold change” value came to 0.745.
RRIRPRPPRLPRPRPRPYHPPRP: the “shrunken log2 fold change” value was -0.246.
On to RRIRGRPPRLPRPRPRPMMTPRP, for which the “shrunken log2 fold change” value is 3.31.
As for RRIRTRPPRLPRPRPRPIDKPRP, the figure is -0.175; as for RRIRMRPPRLPRPRPRPLIQPRP, 0.00597; as for RRIRCRPPRLPRPRPRPNAGPRP, -0.0355.
Consider RRIRFRPPRLPRPRPRPFGQPRP, for which the “shrunken log2 fold change” value was -0.288.
Regarding RRIRPRPPRLPRPRPRPQPPPRP, the “shrunken log2 fold change” value was 0.509.
The value for RRIRERPPRLPRPRPRPSRVPRP was 0.0314; that for RRIRNRPPRLPRPRPRPPGEPRP was 0.0757; that for RRIRGRPPRLPRPRPRPTRHPRP was 0.764.
As for RRIRGRPPRLPRPRPRPWEYPRP, the figure is -0.00088.
The value for RRIRPRPPRLPRPRPRPQHFPRP was -0.297; that for RRIRYRPPRLPRPRPRPKKAPRP was -0.0344.
